Target: Prostate specific antigen (PSA), purified from human seminal fluid (human) (UniProt P07288)
Experiment: gel filtration peak of ~30 kD after thrombin cleavage, GST-peptide IFMA on PSA captured by MAb 5E4

- Binding activity (% of total), remaining after thrombin-treatment: 5.2%
Substance: ~30 kD component of thrombin-cleaved GST-C-4 (from UniProt P08515 1-218)

— US20040106557A1
